Results from US20230256092A1, “COMBINED USE OF ANTI-CCR8 ANTIBODY AND CHEMOTHERAPEUTIC AGENT” (Shionogi & Co., Ltd., priority 2020, published 2023).
Numbering of substitutions follows the chain as printed. Numbers in names are those of the source.

B1: h10A11 (IGKV4-1/IGHV3-73 D101E): humanized 10A11 heavy chain CDR point mutant (antibody, V domains shown)
VL: DIVMTQSPDSLAVSLGERATINCRSSKSLLHSNGNTYLYWYQQKPGQPPKLLIYRMSNLASGVPDRFSGSGSGTDFTLTISSLQAEDVAVYYCMQHLEYPLTFGQGTKLEIKRT
VH: EVQLVESGGGLVQPGGSLKLSCAASGFAFNTYALYWVRQASGKGLEWVGRIRSKSNNYATYYADSVKDRFTISRDDSKNTAYLQMNSLKTEDTAVYYCTRARFYYSDYGYAMEYWGQGTLVTVSS
B2: h10A11 (IGKV4-1/IGHV3-73 A33V): humanized 10A11 heavy chain CDR point mutant (antibody, V domains shown)
VL: B1 VL
VH: B1 VH with A33V, E113D
B3: h10A11 (IGKV4-1/IGHV3-73 T31A): humanized 10A11 heavy chain CDR point mutant (antibody, V domains shown)
VL: B1 VL
VH: B1 VH with T31A, E113D
B4: h10A11 (IGKV4-1/IGHV3-73 L34I): humanized 10A11 heavy chain CDR point mutant (antibody, V domains shown)
VL: B1 VL
VH: B1 VH with L34I, E113D
B5: h10A11 (IGKV4-1/IGHV3-73 Y35F): humanized 10A11 heavy chain CDR point mutant (antibody, V domains shown)
VL: B1 VL
VH: B1 VH with Y35F, E113D
B6: h10A11 (IGKV4-1/IGHV3-73 Y32F): humanized 10A11 heavy chain CDR point mutant (antibody, V domains shown)
VL: B1 VL
VH: B1 VH with Y32F, E113D
B7: h10A11 (IGKV4-1/IGHV3-73 Y102F): humanized 10A11 heavy chain CDR point mutant (antibody, V domains shown)
VL: B1 VL
VH: B1 VH with E113D, Y114F

target: T1, human CCR8 (Homo sapiens, UniProt P51685); assay: Neutralizing activity: inhibition of Ca2+ influx by 200 nM hCCL1 in human CCR8 expressing 293 cells (FLIPR), Test Example 6; assay type: cell-based; conditions: Table 9; WT IC50/mutant IC50; humanized 10A11 heavy chain CDR mutants, IGKV4-1/IGHV3-73
T1 construct: expressed in transfected cells; host or cells: 293 cells
Procedure: The antibody dilution diluted with a medium was added to human CCR8 expressing 293 cells in which a Ca^2+ indicator was incorporated beforehand, and Ca^2+ influx by addition of 200 nM hCCL1 (manufactured by BioLegend) was measured with FLIPR. […] The evaluation was performed at least three times, and IC50 was expressed as average±SD.

| IC50 ratio | Molecule |
| --- | --- |
| 0.17 | B3 |
| 0.43 | B4 |
| 0.44 | B6 |
| 0.99 | B7 |

| Molecule | IC50 ratio |
| --- | --- |
| B1 | n.d. (The n.d. (=not detectable) indicates that the IC50 value of the mutant is 10 nM or more) |
| B2 | n.d. (The n.d. (=not detectable) indicates that the IC50 value of the mutant is 10 nM or more) |
| B5 | n.d. (The n.d. (=not detectable) indicates that the IC50 value of the mutant is 10 nM or more) |
